Experimental data: patent US20030105278A1 (MERK, published 2003)
Bridges are numbered along the chain shown (N, C = ends). Where no end group is shown, it is not given here.

B1: MCH analog SEQ. ID. NO. 30 (Sar^15) (peptide)
peptide: RCMLGRVYRXC
modifications: sarcosine at position 15; N-terminal acetyl, C-terminal amide, Cys-Cys disulfide as in SEQ. ID. NO. 7
B2: MCH analog SEQ. ID. NO. 28 (N-Me-Arg^11) (peptide)
peptide: RCMLGXVYRPC
modifications: N-methyl-arginine at position 11; N-terminal acetyl, C-terminal amide, Cys-Cys disulfide as in SEQ. ID. NO. 7
B3: MCH analog SEQ. ID. NO. 29 (N-Me-Arg^14) (peptide)
peptide: RCMLGRVYXPC
modifications: N-methyl-arginine at position 14; N-terminal acetyl, C-terminal amide, Cys-Cys disulfide as in SEQ. ID. NO. 7
B4: MCH analog SEQ. ID. NO. 46 (position 6: Ac-D-Glu) (peptide)
peptide: XCMLGRVYRPC
modifications: Ac-D-Glu at position 6; C-terminal amide, Cys-Cys disulfide as in SEQ. ID. NO. 7
B5: MCH analog SEQ. ID. NO. 38 (position 6: Ac) (peptide)
peptide: Ac-CMLGRVYRPC-NH2
modifications: disulfide 1-10
SMILES: CSCC[C@@H]1NC(=O)[C@@H](NC(C)=O)CSSC[C@@H](C(N)=O)NC(=O)[C@@H]2CCCN2C(=O)[C@H](CCCNC(=N)N)NC(=O)[C@H](Cc2ccc(O)cc2)NC(=O)[C@H](C(C)C)NC(=O)[C@H](CCCNC(=N)N)NC(=O)CNC(=O)[C@H](CC(C)C)NC1=O
notes: ID; NO; 7 peptide; MCH position numbering
B6: MCH analog SEQ. ID. NO. 41 (position 6: Ac-D-Arg) (peptide)
peptide: XCMLGRVYRPC
modifications: Ac-D-Arg at position 6; C-terminal amide, Cys-Cys disulfide as in SEQ. ID. NO. 7
notes: ID; NO; 7 peptide; MCH position numbering; 15 (D-Arg^6)
B7: MCH analog SEQ. ID. NO. 42 (position 6: Ac-D-Nle) (peptide)
peptide: XCMLGRVYRPC
modifications: Ac-D-Nle at position 6; C-terminal amide, Cys-Cys disulfide as in SEQ. ID. NO. 7
notes: as for B5
B8: MCH analog SEQ. ID. NO. 43 (position 6: Ac-D-Pro) (peptide)
peptide: XCMLGRVYRPC
modifications: Ac-D-Pro at position 6; C-terminal amide, Cys-Cys disulfide as in SEQ. ID. NO. 7
B9: MCH analog SEQ. ID. NO. 37 (position 6: H) (peptide)
peptide: H-CMLGRVYRPC-NH2
modifications: disulfide 1-10
notes: as for B5
B10: MCH analog SEQ. ID. NO. 45 (position 6: Ac-D-Ser) (peptide)
peptide: XCMLGRVYRPC
modifications: Ac-D-Ser at position 6; C-terminal amide, Cys-Cys disulfide as in SEQ. ID. NO. 7
notes: as for B5
B11: MCH analog SEQ. ID. NO. 44 (position 6: Ac-D-Asn) (peptide)
peptide: XCMLGRVYRPC
modifications: Ac-D-Asn at position 6; C-terminal amide, Cys-Cys disulfide as in SEQ. ID. NO. 7
B12: MCH analog SEQ. ID. NO. 31 (position 6: Ac-Ala) (peptide)
peptide: Ac-ACMLGRVYRPC-NH2
modifications: disulfide 2-11
SMILES: CSCC[C@@H]1NC(=O)[C@@H](NC(=O)[C@H](C)NC(C)=O)CSSC[C@@H](C(N)=O)NC(=O)[C@@H]2CCCN2C(=O)[C@H](CCCNC(=N)N)NC(=O)[C@H](Cc2ccc(O)cc2)NC(=O)[C@H](C(C)C)NC(=O)[C@H](CCCNC(=N)N)NC(=O)CNC(=O)[C@H](CC(C)C)NC1=O
notes: as for B5
B13: MCH analog SEQ. ID. NO. 33 (position 6: Ac-Pro) (peptide)
peptide: PCMLGRVYRPC
modifications: Ac-Pro at position 6 (N-terminal acetyl); C-terminal amide, Cys-Cys disulfide as in SEQ. ID. NO. 7
notes: as for B5
B14: MCH analog SEQ. ID. NO. 36 (position 6: Ac-Glu) (peptide)
peptide: ECMLGRVYRPC
modifications: Ac-Glu at position 6 (N-terminal acetyl); C-terminal amide, Cys-Cys disulfide as in SEQ. ID. NO. 7
notes: as for B5
B15: MCH analog SEQ. ID. NO. 35 (position 6: Ac-Ser) (peptide)
peptide: SCMLGRVYRPC
modifications: Ac-Ser at position 6 (N-terminal acetyl); C-terminal amide, Cys-Cys disulfide as in SEQ. ID. NO. 7
notes: as for B5
B16: MCH analog SEQ. ID. NO. 34 (position 6: Ac-Asn) (peptide)
peptide: NCMLGRVYRPC
modifications: Ac-Asn at position 6 (N-terminal acetyl); C-terminal amide, Cys-Cys disulfide as in SEQ. ID. NO. 7
notes: as for B5
B17: MCH analog SEQ. ID. NO. 39 (position 6: Arg) (peptide)
peptide: RCMLGRVYRPC-NH2
modifications: disulfide 2-11 (inferred)
notes: as for B5
B18: MCH analog SEQ. ID. NO. 32 (position 6: Ac-Nle) (peptide)
peptide: XCMLGRVYRPC
modifications: Ac-Nle (acetyl-norleucine) at position 6; C-terminal amide, Cys-Cys disulfide as in SEQ. ID. NO. 7
B19: MCH analog SEQ. ID. NO. 57 (position 10: D-Pro) (peptide)
peptide: RCMLXRVYRPC
modifications: D-Pro at position 10; N-terminal acetyl, C-terminal amide, Cys-Cys disulfide as in SEQ. ID. NO. 7
notes: as for B5
B20: MCH analog SEQ. ID. NO. 60 (position 10: β-Ala) (peptide)
peptide: RCMLXRVYRPC
modifications: β-Ala at position 10; N-terminal acetyl, C-terminal amide, Cys-Cys disulfide as in SEQ. ID. NO. 7
B21: MCH analog SEQ. ID. NO. 55 (position 10: D-Leu) (peptide)
peptide: RCMLXRVYRPC
modifications: D-Leu at position 10; N-terminal acetyl, C-terminal amide, Cys-Cys disulfide as in SEQ. ID. NO. 7
B22: MCH analog SEQ. ID. NO. 59 (position 10: D-Lys) (peptide)
peptide: RCMLXRVYRPC
modifications: D-Lys at position 10; N-terminal acetyl, C-terminal amide, Cys-Cys disulfide as in SEQ. ID. NO. 7
B23: MCH analog SEQ. ID. NO. 49 (position 10: Nle) (peptide)
peptide: RCMLXRVYRPC
modifications: norleucine at position 10; N-terminal acetyl, C-terminal amide, Cys-Cys disulfide as in SEQ. ID. NO. 7
B24: MCH analog SEQ. ID. NO. 56 (position 10: D-Nle) (peptide)
peptide: RCMLXRVYRPC
modifications: D-Nle at position 10; N-terminal acetyl, C-terminal amide, Cys-Cys disulfide as in SEQ. ID. NO. 7
B25: MCH analog SEQ. ID. NO. 48 (position 10: Leu) (peptide)
peptide: Ac-RCMLLRVYRPC-NH2
modifications: disulfide 2-11 (inferred)
notes: as for B5
B26: MCH analog SEQ. ID. NO. 54 (position 10: Glu) (peptide)
peptide: Ac-RCMLERVYRPC-NH2
modifications: disulfide 2-11 (inferred)
notes: as for B5
B27: MCH analog SEQ. ID. NO. 50 (position 10: Pro) (peptide)
peptide: Ac-RCMLPRVYRPC-NH2
modifications: disulfide 2-11 (inferred)
notes: as for B5
B28: MCH analog SEQ. ID. NO. 52 (position 10: Ser) (peptide)
peptide: Ac-RCMLSRVYRPC-NH2
modifications: disulfide 2-11 (inferred)
notes: as for B5
B29: MCH analog SEQ. ID. NO. 47 (position 10: Ala) (peptide)
peptide: Ac-RCMLARVYRPC-NH2
modifications: disulfide 2-11 (inferred)
notes: as for B5
B30: MCH analog SEQ. ID. NO. 51 (position 10: Asn) (peptide)
peptide: Ac-RCMLNRVYRPC-NH2
modifications: disulfide 2-11 (inferred)
notes: as for B5
B31: MCH analog SEQ. ID. NO. 53 (position 10: Lys) (peptide)
peptide: Ac-RCMLKRVYRPC-NH2
modifications: disulfide 2-11 (inferred)
notes: as for B5
B32: MCH analog SEQ. ID. NO. 61 (position 10: γ-Abu) (peptide)
peptide: RCMLXRVYRPC
modifications: γ-Abu (gamma-aminobutyric acid) at position 10; N-terminal acetyl, C-terminal amide, Cys-Cys disulfide as in SEQ. ID. NO. 7
B33: MCH analog SEQ. ID. NO. 68 (position 13: Phe(pCOOH)) (peptide)
peptide: RCMLGRVXRPC
modifications: Phe(pCOOH) at position 13; N-terminal acetyl, C-terminal amide, Cys-Cys disulfide as in SEQ. ID. NO. 7
B34: MCH analog SEQ. ID. NO. 69 (position 13: Cha) (peptide)
peptide: RCMLGRVXRPC
modifications: Cha (cyclohexylalanine) at position 13; N-terminal acetyl, C-terminal amide, Cys-Cys disulfide as in SEQ. ID. NO. 7
B35: MCH analog SEQ. ID. NO. 67 (position 13: Phe(pNH2)) (peptide)
peptide: RCMLGRVXRPC
modifications: Phe(pNH2) at position 13; N-terminal acetyl, C-terminal amide, Cys-Cys disulfide as in SEQ. ID. NO. 7
B36: MCH analog SEQ. ID. NO. 66 (position 13: Phe(pF)) (peptide)
peptide: RCMLGRVXRPC
modifications: p-fluoro-phenylalanine at position 13; N-terminal acetyl, C-terminal amide, Cys-Cys disulfide as in SEQ. ID. NO. 7
B37: MCH analog SEQ. ID. NO. 65 (position 13: (2′)Nal) (peptide)
peptide: RCMLGRVXRPC
modifications: (2′)-naphthylalanine at position 13; N-terminal acetyl, C-terminal amide, Cys-Cys disulfide as in SEQ. ID. NO. 7
B38: MCH analog SEQ. ID. NO. 16 (D-Cys^7) (peptide)
peptide: RXMLGRVYRPC
modifications: D-Cys^7; N-terminal acetyl, C-terminal amide, Cys-Cys disulfide as in SEQ. ID. NO. 7
B39: MCH analog SEQ. ID. NO. 24 (D-Cys^16) (peptide)
peptide: RCMLGRVYRPX
modifications: D-Cys^16; N-terminal acetyl, C-terminal amide, Cys-Cys disulfide as in SEQ. ID. NO. 7

The binders below were run against T1, human MCH receptor expressed from the open reading frame cDNA SEQ. ID. NO. 1 in 293-AEQ17 cells (human, UniProt Q99705 1-353) (assay: cell-based or functional assay).
T1 sequence (Q99705 whole entry): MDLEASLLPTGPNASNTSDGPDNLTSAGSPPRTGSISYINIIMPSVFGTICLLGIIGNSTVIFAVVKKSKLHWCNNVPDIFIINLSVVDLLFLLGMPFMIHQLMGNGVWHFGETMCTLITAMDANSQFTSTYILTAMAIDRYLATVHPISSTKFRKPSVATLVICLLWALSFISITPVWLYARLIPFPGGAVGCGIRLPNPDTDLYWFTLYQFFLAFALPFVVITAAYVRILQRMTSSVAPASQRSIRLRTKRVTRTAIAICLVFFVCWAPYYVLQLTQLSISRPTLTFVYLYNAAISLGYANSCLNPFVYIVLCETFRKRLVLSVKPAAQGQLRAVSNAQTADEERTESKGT

Row | Binder | Activation % [%] | EC50 [nM]
1 | B1 | 113 | 25
2 | B2 | 110 | –
3 | B3 | – | > 1000

Target: T1, human MCH receptor expressed from the …
Assay: cell-based or functional assay
Remark: another data set of the same source

Row | Binder | Activation % [%] | EC50 [nM]
4 | B4 | 85 | –
5 | B5 | 82 | 144
6 | B6 | 86 | 45
7 | B7 | 97 | 110
8 | B8 | 96 | –
9 | B9 | 120 | 809
10 | B10 | 93 | –
11 | B11 | 94 | –
12 | B12 | 135 | 114
13 | B13 | 133 | 59
14 | B14 | 113 | 935
15 | B15 | 120 | 207
16 | B16 | 96 | 150
17 | B17 | 106 | 14
18 | B18 | 107 | –

Target: T1, human MCH receptor expressed from the …
Assay: cell-based or functional assay
Remark: another data set of the same source

Row | Binder | Activation % [%] | EC50 [nM]
19 | B19 | 90 | 190
20 | B20 | 3.2 | > 1000
21 | B21 | 23 | –
22 | B22 | – | > 10000
23 | B23 | 106 | –
24 | B24 | 33 | –
25 | B25 | 106 | 23
26 | B26 | 12 | > 10000
27 | B27 | 4 | 519
28 | B28 | 104 | 65
29 | B29 | 104 | 31
30 | B30 | 106 | 23
31 | B31 | 25 | 4500
32 | B32 | 101 | –

Each binder was assayed against T2, human MCH receptor (membranes from a stable CHO or HEK-293 cell line) (human, UniProt Q99705 1-353) (assay: competition vs [125I]-human MCH (Phe13,Tyr19); human MCH receptor cell membranes (Example 3)).
T2 construct: whole, on cells; also called cloned human MCH receptor (CHO clone)
T2 sequence (Q99705 whole entry): as above

Row | Binder | IC50 [nM]
33 | B5 | 1.6
34 | B6 | 0.46
35 | B7 | 1.2
36 | B9 | 12
37 | B10 | 2.3
38 | B12 | 27
39 | B13 | 3.4
40 | B14 | 19
41 | B15 | 4.5
42 | B16 | 2.6
43 | B17 | 0.13

Target: T1, human MCH receptor expressed from the …
Assay: cell-based or functional assay
Remark: another data set of the same source

Row | Binder | EC50 [µM] | Activation % [%]
44 | B33 | > 10 | –
45 | B34 | – | 93
46 | B35 | – | 88
47 | B36 | – | 98
48 | B37 | – | 105

Target: T1, human MCH receptor expressed from the …
Assay: cell-based or functional assay
Remark: another data set of the same source

Row | Binder | Activation % [%]
49 | B38 | 34
50 | B39 | 76

Target: T1, human MCH receptor expressed from the …
Assay: cell-based or functional assay
Remark: another data set of the same source

Row | Binder | % Activation at 10 µM [%]
51 | DFDXLRCXLGRVYRPCWQV (norleucine (Nle) at positions 4 and 8; cyclization (S-S) between the two Cys) | 65.9

Target: T2, human MCH receptor (membranes from a …)
Assay: competition vs [125I]-human MCH (Phe13,Tyr19); human MCH receptor cell membranes (Example 3)
Remark: another data set of the same source

Row | Binder | IC50 [nM]
52 | B19 | 1.2
53 | B25 | 0.06
54 | B26 | 190
55 | B27 | 700
56 | B28 | 0.32
57 | B29 | 0.59
58 | B30 | 0.23
59 | B31 | 110
